Results: patent publication US20160068605A1 (Janssen / Centocor, published 2016)

T1: human CD123 SP1 ECD displayed on pDisplay-transfected cells (human, UniProt P26951 20-305)
T1 construct: ECD anchored on the surface of stably transfected HEK293 cells by the PDGFR transmembrane domain; also called hCD123 SP1 cells; hCD123 cells
T1 sequence: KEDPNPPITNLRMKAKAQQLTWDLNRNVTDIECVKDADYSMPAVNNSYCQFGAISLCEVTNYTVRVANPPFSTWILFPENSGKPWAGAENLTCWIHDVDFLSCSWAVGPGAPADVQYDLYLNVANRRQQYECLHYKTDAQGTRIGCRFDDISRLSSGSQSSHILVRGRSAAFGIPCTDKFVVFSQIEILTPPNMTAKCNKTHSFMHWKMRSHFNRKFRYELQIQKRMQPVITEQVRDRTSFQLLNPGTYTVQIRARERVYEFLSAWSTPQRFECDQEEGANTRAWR

T2: human CD123 SP2 ECD displayed on pDisplay-transfected cells (human, UniProt P26951 101-305)
T2 construct: ECD anchored on the surface of stably transfected HEK293 cells; also called hCD123 SP2 cells; pDisplay CD123SP2
T2 sequence: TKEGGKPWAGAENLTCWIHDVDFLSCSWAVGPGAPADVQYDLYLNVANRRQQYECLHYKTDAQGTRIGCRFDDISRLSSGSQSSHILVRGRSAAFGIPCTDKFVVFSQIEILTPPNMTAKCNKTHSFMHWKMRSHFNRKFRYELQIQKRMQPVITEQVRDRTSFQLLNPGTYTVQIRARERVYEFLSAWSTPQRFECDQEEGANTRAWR

T3: Recombinant human CD123 SP1 ECD-His tag protein (human, UniProt P26951 20-305)
T3 construct: bought from R&D Systems (#301-R3/CF); biotinylated for some assays; also called rhCD123 SP1; huCD123 ECD SP1
T3 sequence: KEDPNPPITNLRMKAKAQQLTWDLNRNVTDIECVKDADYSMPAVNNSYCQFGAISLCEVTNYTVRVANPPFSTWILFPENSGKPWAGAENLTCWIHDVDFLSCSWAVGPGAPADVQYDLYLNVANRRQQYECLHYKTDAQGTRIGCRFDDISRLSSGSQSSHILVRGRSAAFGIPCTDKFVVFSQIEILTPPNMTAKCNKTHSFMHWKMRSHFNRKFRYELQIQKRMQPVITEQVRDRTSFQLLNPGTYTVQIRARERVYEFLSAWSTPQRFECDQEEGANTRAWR

T4: Recombinant human CD123 SP2 ECD protein (human, UniProt P26951 101-303)
T4 construct: also called rhCD123 SP2; CD123 ECD SP2
T4 sequence: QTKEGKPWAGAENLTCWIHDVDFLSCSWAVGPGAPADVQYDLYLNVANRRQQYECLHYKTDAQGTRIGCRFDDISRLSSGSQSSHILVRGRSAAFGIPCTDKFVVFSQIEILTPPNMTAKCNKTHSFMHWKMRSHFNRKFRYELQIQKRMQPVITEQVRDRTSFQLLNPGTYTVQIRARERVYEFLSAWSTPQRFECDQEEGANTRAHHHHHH


Experiments:
[1] = biological target: T1, human CD123 SP1 ECD displayed on …; test: MSD-CAT on pDisplay cells
Experimental: (§1) The MSD-CAT was developed in-house as a label-free method to determine affinity using intact cells in a high throughput format. […] Cell lines used were human pDisplay CD123SP1 and pDisplay CD123SP2. […] These samples were prepared in DMEM Glutamax medium containing 0.05% Azide, 1% BSA, 3 mM EDTA. […] After equilibration the plate was centrifuged for 5 minutes ˜1000 rpm and free anti-CD3 detected on the supernatant. […] The assay buffer was removed without washing and 50 uL/well of 0.7 ug/mL of biotinylated antigen in assay buffer were added to MSD plates and incubated overnight (˜16 hours at 4° C.).

[2] = biological target: T2, human CD123 SP2 ECD displayed on …; test: MSD-CAT on pDisplay cells
Experimental: as §1

[3] = biological target: T3, Recombinant human CD123 SP1 ECD-His tag …; test: SPR Biacore T200, captured antibody
Experimental: (§2) Kinetic studies were performed at 25° C. using a Biacore T200 (Biacore, Inc., now part of GE Healthcare). […] The carboxymethyl groups of dextran were activated with N-Ethyl-N′-(3-Dimethylaminopropyl)carbodiimide (EDC) and N-hydroxysuccinimide (NHS). The anti-Fc antibody was coupled at pH 4.5 in 10 mM sodium acetate. Any remaining reactive sites on the surface were blocked by reaction with ethanolamine. […] 40-70 RU of antibody were captured. […] Association data was collected for 2 min followed by 10 min of dissociation. The surface was regenerated with 30 μL of 100 mM H3PO4 100 μL/min, followed by 50 mM NaOH. The samples for kinetic analysis were prepared in PBS-based buffer (D-PBS containing 3 mM EDTA and 0.005% surfactant P20). Data reported is the difference in SPR signal between the flow cell containing the captured antibody and a reference cell without captured antibody. Additional instrumental contributions to the signal were removed by subtraction of the data from the blank injection from the reference-subtracted signal. Data were analyzed by fitting association and dissociation phases at all concentrations (global fit) with a 1:1 binding model using the BIAevaluation software (BIAcore, Inc.).

[4] = biological target: T4, Recombinant human CD123 SP2 ECD protein; test: SPR Biacore T200, captured antibody
Experimental: as §2

[5] = biological target: T5, cell-surface CD3 epsilon on primary cynomolgus T cells (cynomolgus monkey, UniProt Q95LI5 22-198); test: flow cytometry competition with labeled CD3B146 on T cells
T5 construct: whole, on cells; also called cynomolgus CD3e; Cyno T-cells
Description: (§3) The format involved competition binding using a fixed concentration of labeled anti-CD3 mAb of known affinity and increasing concentrations of unlabeled test Abs (Ashkenazi A et al. PNAS: 88:10535, 1991.).

[6] = biological target: T6, cell-surface CD3 epsilon on primary human T cells (human, UniProt P07766 23-207); test: as above
T6 construct: whole, on cells; part of the CD3/TCR complex on the cells
Description: as §3

T6 sequence (P07766 23-207): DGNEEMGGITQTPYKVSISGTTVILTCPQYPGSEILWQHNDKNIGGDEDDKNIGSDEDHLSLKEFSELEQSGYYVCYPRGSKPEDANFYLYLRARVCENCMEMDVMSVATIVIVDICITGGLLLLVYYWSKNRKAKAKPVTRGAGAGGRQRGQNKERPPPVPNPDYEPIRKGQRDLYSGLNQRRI
T5 sequence (Q95LI5 22-198): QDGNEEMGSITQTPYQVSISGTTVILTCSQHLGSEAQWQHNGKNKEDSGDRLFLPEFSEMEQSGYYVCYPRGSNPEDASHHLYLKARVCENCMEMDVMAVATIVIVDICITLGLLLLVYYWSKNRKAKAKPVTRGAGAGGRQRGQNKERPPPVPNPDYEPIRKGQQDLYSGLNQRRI

| Binder | Kd [1] [nM] | Kd [2] [nM] | Kd [3] [nM] | koff [3] [s⁻¹] | kon [3] [M⁻¹ s⁻¹] | Kd [4] [nM] | koff [4] [s⁻¹] | kon [4] [M⁻¹ s⁻¹] | Kd [5] [nM] | Kd [6] [nM] |
| --- | --- | --- | --- | --- | --- | --- | --- | --- | --- | --- |
| bispecific antibody Ab 3978 (bispecific antibody, human IgG4 S228P, kappa, lambda, F234A L235A, IgG4-PAA; CD3 arm of CD3B217 (first heavy and light chain), CD123 arm of I3RB217 (I3RB18)) heavy 1: EVQLLESGGGLVQPGGSLRLSCAASGFTFNTYAMNWVRQAPGKGLEWVARIRSKYNNYATYYADSVKGRFTISRDNSKNTLYLQMNSLRAEDTAVYYCVKHGNFGNSYVSWFAYWGQGTLVTVSSASTKGPSVFPLAPCSRSTSESTAALGCLVKDYFPEPVTVSWNSGALTSGVHTFPAVLQSSGLYSLSSVVTVPSSSLGTKTYTCNVDHKPSNTKVDKRVESKYGPPCPPCPAPEAAGGPSVFLFPPKPKDTLMISRTPEVTCVVVDVSQEDPEVQFNWYVDGVEVHNAKTKPREEQFNSTYRVVSVLTVLHQDWLNGKEYKCKVSNKGLPSSIEKTISKAKGQPREPQVYTLPPSQEEMTKNQVSLTCLVKGFYPSDIAVEWESNGQPENNYKTTPPVLDSDGSFLLYSKLTVDKSRWQEGNVFSCSVMHEALHNHYTQKSLSLSLGK light 1: QAVVTQEPSLTVSPGGTVTLTCRSSTGAVTTSNYANWVQQKPGQAPRGLIGGTNKRAPGTPARFSGSLLGGKAALTLSGAQPEDEAEYYCALWYSNLWVFGGGTKLTVLGQPKAAPSVTLFPPSSEELQANKATLVCLISDFYPGAVTVAWKADSSPVKAGVETTTPSKQSNNKYAASSYLSLTPEQWKSHRSYSCQVTHEGSTVEKTVAPTECS heavy 2: not shown light 2: EIVLTQSPGTLSLSPGERATLSCRASQSVSSSYLAWYQQKPGQAPRLLIYGASSRATGIPDRFSGSGSGTDFTLTISRLEPEDFAVYYCQQDYGFPWTFGQGTKVEIKRTVAAPSVFIFPPSDEQLKSGTASVVCLLNNFYPREAKVQWKVDNALQSGNSQESVTEQDSKDSTYSLSSTLTLSKADYEKHKVYACEVTHQGLSSPVTKSFNRGEC | 0.153 | 0.528 | 1.47 | 0.00083 | 564000 | 0.356 | 0.0011 | 3.12e+06 | 215 | 241 |
| bispecific antibody Ab 8876 (bispecific antibody, human IgG4 S228P, kappa, lambda, F234A L235A, also called 8876I) heavy 1: EVQLLESGGGLVQPGGSLRLSCAASGFTFNTYAMNWVRQAPGKGLEWVARIRSKYNNYATYYADSVKGRFTISRDNSKNTLYLQMNSLRAEDTAVYYCVKHGNFGNSYVSWFAYWGQGTLVTVSSASTKGPSVFPLAPCSRSTSESTAALGCLVKDYFPEPVTVSWNSGALTSGVHTFPAVLQSSGLYSLSSVVTVPSSSLGTKTYTCNVDHKPSNTKVDKRVESKYGPPCPPCPAPEAAGGPSVFLFPPKPKDTLMISRTPEVTCVVVDVSQEDPEVQFNWYVDGVEVHNAKTKPREEQFNSTYRVVSVLTVLHQDWLNGKEYKCKVSNKGLPSSIEKTISKAKGQPREPQVYTLPPSQEEMTKNQVSLTCLVKGFYPSDIAVEWESNGQPENNYKTTPPVLDSDGSFLLYSKLTVDKSRWQEGNVFSCSVMHEALHNHYTQKSLSLSLGK light 1: QAVVTQEPSLTVSPGGTVTLTCRSSTGAVTTSNYANWVQQKPGQAPRGLIGGTNKRAPGTPARFSGSLLGGKAALTLSGAQPEDEAEYYCALWYSNLWVFGGGTKLTVLGQPKAAPSVTLFPPSSEELQANKATLVCLISDFYPGAVTVAWKADSSPVKAGVETTTPSKQSNNKYAASSYLSLTPEQWKSHRSYSCQVTHEGSTVEKTVAPTECS heavy 2: not shown light 2: not shown | 1.29 | 2.45 | 14.4 | 0.0049 | 343000 | 1.75 | 0.005 | 2.83e+06 | 110 | 169 |
| bispecific antibody Ab 7955 (bispecific antibody, human IgG4 S228P, kappa, lambda, F234A L235A, IgG4-PAA; CD3 arm of CD3B218, CD123 arm of I3RB217 (I3RB18)) heavy 1: EVQLLESGGGLVQPGGSLRLSCAASGFTFNTYAMNWVRQAPGKGLEWVARIRSKYNNYATYYADSVKGRFTISRDNSKNTLYLQMNSLRAEDTAVYYCVKHGNFGNSYVSWFAYWGQGTLVTVSSASTKGPSVFPLAPCSRSTSESTAALGCLVKDYFPEPVTVSWNSGALTSGVHTFPAVLQSSGLYSLSSVVTVPSSSLGTKTYTCNVDHKPSNTKVDKRVESKYGPPCPPCPAPEAAGGPSVFLFPPKPKDTLMISRTPEVTCVVVDVSQEDPEVQFNWYVDGVEVHNAKTKPREEQFNSTYRVVSVLTVLHQDWLNGKEYKCKVSNKGLPSSIEKTISKAKGQPREPQVYTLPPSQEEMTKNQVSLTCLVKGFYPSDIAVEWESNGQPENNYKTTPPVLDSDGSFLLYSKLTVDKSRWQEGNVFSCSVMHEALHNHYTQKSLSLSLGK light 1: QTVVTQEPSLTVSPGGTVTLTCRSSTGAVTTSNYANWVQQKPGQAPRGLIGGTNKRAPGTPARFSGSLLGGKAALTLSGVQPEDEAEYYCALWYSNLWVFGGGTKLTVLGQPKAAPSVTLFPPSSEELQANKATLVCLISDFYPGAVTVAWKADSSPVKAGVETTTPSKQSNNKYAASSYLSLTPEQWKSHRSYSCQVTHEGSTVEKTVAPTECS heavy 2: not shown light 2: EIVLTQSPGTLSLSPGERATLSCRASQSVSSSYLAWYQQKPGQAPRLLIYGASSRATGIPDRFSGSGSGTDFTLTISRLEPEDFAVYYCQQDYGFPWTFGQGTKVEIKRTVAAPSVFIFPPSDEQLKSGTASVVCLLNNFYPREAKVQWKVDNALQSGNSQESVTEQDSKDSTYSLSSTLTLSKADYEKHKVYACEVTHQGLSSPVTKSFNRGEC | 0.136 | 0.436 | 1.49 | 0.00084 | 562000 | 0.344 | 0.0011 | 3.33e+06 | 169 | 210 |
| bispecific antibody Ab 4435 (bispecific antibody, human IgG4 S228P, kappa, lambda, F234A L235A) heavy 1: EVQLLESGGGLVQPGGSLRLSCAASGFTFNTYAMNWVRQAPGKGLEWVARIRSKYNNYATYYADSVKGRFTISRDNSKNTLYLQMNSLRAEDTAVYYCVKHGNFGNSYVSWFAYWGQGTLVTVSSASTKGPSVFPLAPCSRSTSESTAALGCLVKDYFPEPVTVSWNSGALTSGVHTFPAVLQSSGLYSLSSVVTVPSSSLGTKTYTCNVDHKPSNTKVDKRVESKYGPPCPPCPAPEAAGGPSVFLFPPKPKDTLMISRTPEVTCVVVDVSQEDPEVQFNWYVDGVEVHNAKTKPREEQFNSTYRVVSVLTVLHQDWLNGKEYKCKVSNKGLPSSIEKTISKAKGQPREPQVYTLPPSQEEMTKNQVSLTCLVKGFYPSDIAVEWESNGQPENNYKTTPPVLDSDGSFLLYSKLTVDKSRWQEGNVFSCSVMHEALHNHYTQKSLSLSLGK light 1: QTVVTQEPSLTVSPGGTVTLTCRSSTGAVTTSNYANWVQQKPGQAPRGLIGGTNKRAPGTPARFSGSLLGGKAALTLSGVQPEDEAEYYCALWYSNLWVFGGGTKLTVLGQPKAAPSVTLFPPSSEELQANKATLVCLISDFYPGAVTVAWKADSSPVKAGVETTTPSKQSNNKYAASSYLSLTPEQWKSHRSYSCQVTHEGSTVEKTVAPTECS heavy 2: not shown light 2: not shown | 1.53 | 3.7 | 14.3 | 0.0048 | 337000 | 1.74 | 0.005 | 2.88e+06 | 139 | 174 |
